{"source": "patent US9469841B2", "about": "“Prodrug activation in cancer cells using molecular switches” (The Johns Hopkins University, priority 2008, dated 2016)", "molecules": {"B1": {"name": "yCD: yeast cytosine deaminase containing the A23L/V108I/I140L mutations; positive control (protein, UniProt Q12178 1-158, looked up, variant A23L V108I I140L)", "Cytosine deaminase": "MVTGGMASKWDQKGMDIAYEEALLGYKEGGVPIGGCLINNKDGSVLGRGHNMRFQKGSATLHGEISTLENCGRLEGKVYKDTTLYTTLSPCDMCTGAIIMYGIPRCVIGENVNFKSKGEKYLQTRGHEVVVVDDERCKKLMKQFIDERPQDWFEDIGE"}, "B2": {"name": "BLA: the enzyme TEM-1 beta-lactamase (protein, UniProt P62593 24-286, looked up)", "Beta-lactamase TEM": "HPETLVKVKDAEDQLGARVGYIELDLNSGKILESFRPEERFPMMSTFKVLLCGAVLSRVDAGQEQLGRRIHYSQNDLVEYSPVTEKHLTDGMTVRELCSAAITMSDNTAANLLLTTIGGPKELTAFLHNMGDHVTRLDRWEPELNEAIPNDERDTTMPAAMATTLRKLLTGELLTLASRQQLIDWMEADKVAGPLLRSALPAGWFIADKSGAGERGSRGIIAALGPDGKPSRIVVIYTTGSQATMDERNRQIAEIGASLIKHW"}}, "key": {"HIF-1a": {"target": "HIF-1a (Homo sapiens, UniProt Q16665)", "sequence (Q16665 786-826 limits assumed)": "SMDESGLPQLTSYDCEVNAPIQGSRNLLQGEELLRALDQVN", "sequence (Q09472 331-417 partner limits assumed)": "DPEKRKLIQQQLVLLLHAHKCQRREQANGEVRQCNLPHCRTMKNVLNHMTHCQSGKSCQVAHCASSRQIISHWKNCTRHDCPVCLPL", "conditions": "cited from earlier work"}, "MBP317-347": {"system": "MBP317-347", "assay": "Effect of beta-cyclodextrin on maltose activation of switch MBP317-347", "assay_type": "biochemical", "protocol": "The rate of beta-lactam hydrolysis as a function of maltose (dots) follows the maltose-binding isotherm (blue). […] Initially, in the absence of any ligand, the rate of beta-lactam hydrolysis catalyzed by the switch is low. At about 5 minutes, maltose is added and the enzyme activity of the switch is turned on. At about 10 minutes, an excess of beta-cyclodextrin is added. This replaces maltose in the binding site and turns the enzyme activity of the switch off. At about 16 minutes, an excess of maltose is added which replaces beta-cyclodextrin and turns the enzyme activity of the switch back on.\nNatural allosteric proteins often have modest (<10-fold) differences in function between the effector-bound and effector-unbound states. However very large differences in activity between the two states would be advantageous for many applications of protein switches. […] Using an iterative strategy involving random circular permutation and random insertion several switches were created that approach being on/off in nature (6). […] The creation of these switches was facilitated by a new directed evolution algorithm for non-homologous recombination that was developed for efficiently exploring the sequence space comprised of the possible fusions of the two proteins. […]"}, "GIA39 E. coli cells": {"system": "GIA39 E. coli cells", "assay": "Growth on \"negative selection\" minimal plates supplemented with 5FC", "assay_type": "cell-based", "design": "key: + = growth; − = no growth", "protocol": "Minimal media was used in the selection schemes and was based on a product mixture described by Sigma. For 1 L it containing 20 g of Select Agar (Sigma# A5054), 6.7 g of Yeast nitrogen base without amino acids (Sigma #Y0626), 1.92 g of Yeast synthetic drop-out without uracil (Sigma #Y1501), glucose to 2%, 1 mM IPTG and 50 μg/mL of chloramphenicol. For “negative” selection media, the above media was supplemented with 75 μg/mL or 25 μg/mL of 5FC and 1 μg/mL of uracil. For “positive” selection media, supplementation was with 25 μg/mL of cytosine, 1 mM arabinose and 100 μg/mL of ampicillin Each Bio-Assay dish contained 250 mL of selection media and each standard Petri dish contained 25 mL of media.\nThe selection scheme was developed to isolate library members whose CD activity is “off” in the absence of HIF-1a but “on” in the presence of HIF-1a. […] A GST-HIF-1a fusion was created that is under the control of the arabinose promoter on a plasmid that can coexist with the pDIM-C8 library plasmids. This “HIF-1a plasmid” is a variation of the pGEX plasmid and has ampicillin resistance. During selections, this HIF-1a plasmid will either be present to produce HIF-1a and activate the hybrid protein switches, or absent to avoid any production of HIF-1a.\nDuring the negative selection, no HIF-1a plasmid was present in the cells. Thus, hybrids that are active in the absence of HIF-1a will convert the 5FC into 5FU and kill the cell. But, hybrids that are not active in the absence of HIF-1a will be able to use the minimal amount of uracil provided and grow to form colonies. The negative selection was performed twice in succession using the Bio-Assay dish size plates (2 plates each time with about 600,000 cells plated on each plate). The first time the negative selection media contained 75 μg/mL 5FC. The colonies that grew on this plated were recovered and then underwent a second negative selection to help ensure that any pDIM-C8 plasmids encoding a wild-type yCD were removed from the library. The second negative selection was performed the same as the first except that 25 μg/mL of 5FC was used. The cells that survived the second negative selection were harvested and then aliquoted. One aliquot was used to isolate library plasmids that were used in the positive selection that followed.\nThis experiment confirmed that the switch genes conferred sensitivity to 5FC depends on induction of expression of HIF1-a (see Table 2, below).\nCells harboring the switch genes in pDIM-C8 or cells with the same plasmid together with the HIF1-a plasmid were plated on minimal media plates supplemented with 5FC (i.e. the negative selection conditions). […]"}, "E. coli cells": {"system": "E. coli cells", "assay": "MIC of ampicillin for E. coli cells expressing switch, with and without maltose", "assay_type": "cell-based", "conditions": "E. coli cells expressing MBP or BLA separately"}}, "note": "Read-outs that look alike come from different tables or passages of the source.", "data": [{"molecule": "CH1 domain: CH1 domain of p300, 100 amino acids, binds HIF-1a", "values": [{"measurement": "Kd", "setting": "HIF-1a; in vitro at 25° C., read-out: dissociation constant of the CH1 domain and HIF-1a", "result": "~120", "unit": "nM"}, {"measurement": "Kd", "setting": "HIF-1a; minimal domains CH1 and C-TAD of HIF-1a, read-out: Kd", "result": 120, "unit": "nM"}]}, {"molecule": "OC[C@H]1O[C@@H]2O[C@H]3[C@H](O)[C@@H](O)[C@@H](O[C@H]4[C@H](O)[C@@H](O)[C@@H](O[C@H]5[C@H](O)[C@@H](O)[C@@H](O[C@H]6[C@H](O)[C@@H](O)[C@@H](O[C@H]7[C@H](O)[C@@H](O)[C@@H](O[C@H]8[C@H](O)[C@@H](O)[C@@H](O[C@H]1[C@H](O)[C@H]2O)O[C@@H]8CO)O[C@@H]7CO)O[C@@H]6CO)O[C@@H]5CO)O[C@@H]4CO)O[C@@H]3CO", "note": "[beta-cylcodextrin, beta-cyclodextrin]", "values": [{"measurement": "Effect on maltose activation of the switch", "setting": "MBP317-347", "result": "antagonist preventing maltose-activation"}]}, {"molecule": "B1", "values": [{"measurement": "Growth on \"negative selection\" minimal plates supplemented with 75 μg/ml 5FC", "setting": "GIA39 E. coli cells; w/ HIF1-a plasmid, 1 mM arabinose", "result": "−"}, {"measurement": "Growth on \"negative selection\" minimal plates supplemented with 75 μg/ml 5FC", "setting": "GIA39 E. coli cells; w/ HIF1-a plasmid, No arabinose", "result": "−"}, {"measurement": "Growth on \"negative selection\" minimal plates supplemented with 75 μg/ml 5FC", "setting": "GIA39 E. coli cells; w/o HIF1-a plasmid, 1 mM arabinose", "result": "−"}, {"measurement": "Growth on \"negative selection\" minimal plates supplemented with 75 μg/ml 5FC", "setting": "GIA39 E. coli cells; w/o HIF1-a plasmid, No arabinose", "result": "−"}]}, {"molecule": "B2", "values": [{"measurement": "Effect of maltose on MIC of ampicillin", "setting": "E. coli cells", "result": "not affect by maltose"}]}]}
